# Measurements from patent publication US20250388696A1 (NAVIGO PROTEINS, published 2025).
# Residue numbers refer to the chain shown, from its start. Where no end group is shown, it is not given here.
# B1: fusion protein 217781 (designed binder, not shown: small tags and cut ends)
# chain (part 1 of 2): not shown
# chain (part 2 of 2): LAEAKVLALKELDKYGISNYYKNLINNAKTIEGVKALKEAIVAA
# notes: also called CID 217781
# B2: fusion protein 218466 (designed binder, not shown: small tags and cut ends)
# chain (part 1 of 2): not shown
# chain (part 2 of 2): B1 chain (part 2 of 2) with E39D, A40E
# notes: also called CID 218466
# B3: fusion protein 218513 (designed binder, not shown: small tags and cut ends)
# chain (part 1 of 2): not shown
# chain (part 2 of 2): B1 chain (part 2 of 2) with I31V, K35E, V42L
# notes: also called CID 218513
# B4: fusion protein 218514 (designed binder, not shown: small tags and cut ends)
# chain (part 1 of 2): not shown
# chain (part 2 of 2): B1 chain (part 2 of 2) with K35E, E39D, V42L
# notes: also called CID 218514
# B5: fusion protein 217787 (designed binder, not shown: small tags and cut ends)
# chain (part 1 of 2): not shown
# chain (part 2 of 2): LAEAKVLALKELDKYGISDFYKRLIDKAKTIEGVEALKDAILAA
# notes: also called CID 217787
# B6: fusion protein 218467 (designed binder, not shown: small tags and cut ends)
# chain (part 1 of 2): not shown
# chain (part 2 of 2): LAEAKVLAIKELDKAGISNYYFNLINNAKTVEGVKDLKAQIVAA
# notes: also called CID 218467
# B7: fusion protein 218512 (designed binder, not shown: small tags and cut ends)
# chain (part 1 of 2): not shown
# chain (part 2 of 2): B1 chain (part 2 of 2) with I31V
# notes: also called CID 218512
# B8: Fusion proteins with albumin binding domain of SEQ ID NO: 5 (designed binder, not shown: small tags and cut ends)
# chain: B1 chain (part 2 of 2) with E39D
# modifications: also: part of fusion protein, targeting moiety, linker, tag and order not given here
# B9: Fusion proteins with albumin binding domain of SEQ ID NO: 7 (designed binder, not shown: small tags and cut ends)
# chain: B1 chain (part 2 of 2) with K35E, E39D, V42L
# modifications: also: part of fusion protein, targeting moiety, linker, tag and order not given here
# notes: also called c24
# B10: Fusion proteins with albumin binding domain of SEQ ID NO: 25 (designed binder, not shown: small tags and cut ends)
# chain: B1 chain (part 2 of 2) with K35E
# modifications: also: part of fusion protein, targeting moiety, linker, tag and order not given here
# B11: Fusion proteins with albumin binding domain of SEQ ID NO: 24 (designed binder, not shown: small tags and cut ends)
# chain: B1 chain (part 2 of 2) with K35E, E39D
# modifications: also: part of fusion protein, targeting moiety, linker, tag and order not given here
# B12: Fusion proteins with albumin binding domain of SEQ ID NO: 23 (designed binder, not shown: small tags and cut ends)
# chain: B1 chain (part 2 of 2)
# modifications: also: part of fusion protein, targeting moiety, linker, tag and order not given here
# notes: also called c19
# B13: Fusion proteins with albumin binding domain of SEQ ID NO: 22 (designed binder, not shown: small tags and cut ends)
# chain: B1 chain (part 2 of 2) with E39A, A40Q, V42L
# modifications: also: part of fusion protein, targeting moiety, linker, tag and order not given here
# B14: Fusion proteins with albumin binding domain of SEQ ID NO: 21 (designed binder, not shown: small tags and cut ends)
# chain: B1 chain (part 2 of 2) with E39A
# modifications: also: part of fusion protein, targeting moiety, linker, tag and order not given here
# B15: Fusion proteins with albumin binding domain of SEQ ID NO: 6 (designed binder, not shown: small tags and cut ends)
# chain: B1 chain (part 2 of 2) with E39D, A40E
# modifications: also: part of fusion protein, targeting moiety, linker, tag and order not given here
# notes: also called c20
# B16: Fusion proteins with albumin binding domain of SEQ ID NO: 13 (designed binder, not shown: small tags and cut ends)
# chain: B6 chain (part 2 of 2) with N19D, V31I, D36A
# modifications: also: part of fusion protein, targeting moiety, linker, tag and order not given here
# B17: Fusion proteins with albumin binding domain of SEQ ID NO: 26 (designed binder, not shown: small tags and cut ends)
# chain: B1 chain (part 2 of 2) with K35E, V42L
# modifications: also: part of fusion protein, targeting moiety, linker, tag and order not given here
# Biological target: T1, Her2-Fc (human, UniProt P04626 23-652)
# T1 construct: Coated in ELISA
# Assay: ELISA on coated Her2-Fc; 24 h in human serum at 37 C
# Method: (§1) High binding plates (Greiner, 781061) were immobilized with 2.5 μg/ml hFAP-Fc or 1.2 μg/ml Her2-Fc over night at 4° C. Dilution series of 3 μM to 0.07 pM of fusion proteins with binding specifically to Her2 were incubated in 100% human serum or 100% mouse serum for 24 h at 37° C. Dilution series of 3 µM to 0.2 pM or 1 μM to 0.01 fM of fusion proteins with binding specifically to hFAP were incubated in 100% human serum or 100% mouse serum for 24 h at 37° C. ELISA-plates were washed three times with PBST (PBS+0.1% Tween) and blocked with 3% BSA/0.5% Tween/PBS up to 2 h at room temperature (rt). After preincubation for 0 h or 24 h in the presence of serum the dilution series were incubated on ELISA-plates for up to 1 h at rt. Wells were washed with PBST and incubated with biotinylated anti-ubiquitin-antibody (1:300) for up to 1 h at rt. The binding was visualized with Streptavidin-HRP (1:5.000).
# (§2) The fusion proteins comprise the albumin binding domain (referred to as HED) and the targeting moiety.
row,Kd,Binder
1,0.79 nM,B1
2,0.32 nM,B2
3,0.43 nM,B3
4,0.3 nM,B4
5,0.53 nM,B5
6,0.36 nM,B6
7,0.36 nM,B7

# Biological target: T1, Her2-Fc
# Assay: ELISA on coated Her2-Fc; after 24 h in human serum at 37 C
# Method: as §1, §2
row,max binding after 24 h [%],Binder
1,94.1%,B1
2,95.1%,B2
3,100%,B3
4,96.4%,B4
5,96.2%,B5
6,99%,B6
7,100%,B7

# Biological target: T1, Her2-Fc
# Assay: ELISA on coated Her2-Fc; 24 h in mouse serum at 37 C
# Method: as §1, §2
row,Kd,Binder
1,0.63 nM,B1
2,0.23 nM,B2
3,0.31 nM,B3
4,0.25 nM,B4
5,0.6 nM,B5
6,0.2 nM,B6
7,0.24 nM,B7

# Biological target: T2, Her2 (immobilised on the SPR chip) (human, UniProt P04626 23-652, limits assumed)
# T2 construct: construct not described; also called human epidermal growth factor receptor 2
# Assay: SPR, Her2 immobilised on the chip, pH 7.3, 1:1 Langmuir fit [continued]
# Method: (§3) Recombinant protein A, HSA, MSA or target (either ED-B or Her2) was immobilized on a High Capacity Amine sensor chip (Bruker) after NHS/EDC activation with a Sierra SPR-32 system (Bruker). The chip was equilibrated with SPR running buffer (PBS 0.05%, Tween pH 7.3). Injection of ethanolamine after target immobilization was used to block free NHS groups. To determine the binding of fusion proteins to FAP, the Fc-tagged target was injected with 60 or 30 nM to Protein A coupled spots followed by the injection of fusion proteins.
# (§4) Binding proteins were applied to the chip in serial dilutions with a flow rate of 30 μl/min. Upon binding, analyte accumulated on the surface increasing the refractive index. This change in the refractive index was measured in real time and plotted as response or resonance units versus time. The association was performed for 120 seconds and the dissociation for 180 seconds. After each run, the chip surface was regenerated with 30 μl regeneration buffer (10 mM glycine pH 2.0 or pH 1.5) and equilibrated with running buffer. Binding studies were carried out using the Sierra SPR-32 system (Bruker); data evaluation was operated via the Sierra Analyser software, provided by the manufacturer, by the use of the Langmuir 1:1 model (RI=0).
row,Kd,Binder
1,4.1 nM,B1
2,4.4 nM,B2
3,3.3 nM,B3
4,3.3 nM,B4
5,7.3 nM,B5
6,2.7 nM,B7

# Biological target: T1, Her2-Fc
# Assay: ELISA on coated Her2-Fc; after 24 h in mouse serum at 37 C
# Method: as §1, §2
row,max binding after 24 h [%],Binder
1,97.7%,B1
2,96.6%,B2
3,106%,B3
4,100%,B4
5,100%,B5
6,104%,B6
7,98.6%,B7

# Biological target: T3, Her2 expressed on Sk-Br-3 cells (human, UniProt P04626 23-1255)
# T3 construct: whole, on cells; also called human epidermal growth factor receptor 2
# Assay: flow cytometry, dilution series on Sk-Br-3 cells
# Method: Her2 expressing Sk-Br-3-cells and HEK293-hFAP overexpressing cells were thawed, washed with medium containing FCS, subsequently washed with FACS blocking buffer (PBS/0.1% Sodium Azide/3% FCS) and 100 μl seeded in 96-well round bottom plates with a density of 1×10⁶ cells/ml. Dilution series from 10 µM to 8.6 fM (CID 217781, CID 217787) and a dilution series of 3 µM to 0.2 μM (CID 218466, CID 218467, 218512, CID 218513, CID 218514, CID 218515, CID 218516) were incubated on Her2-expressing Sk-Br-3-cells and dilution series from 1 μM to 0.07 μM of fusion proteins 218690 and 218702 were incubated on hFAP-overexpressing HEK293-cell line for 45 min at 4° C. After centrifugation the supernatants were removed and cells were washed with FACS blocking buffer and 100 μl/well rabbit anti-Strep-Tag antibody (GenScript; A00626), 1:300 diluted in FACS blocking buffer were added. After removal of the primary antibody goat anti-rabbit IgG Alexa Fluor 488 antibody (Invitrogen; A4008) was applied in a 1:1000 dilution in FACS blocking buffer. Flow cytometry measurement was conducted on the Guava easyCyte 5HT device from Merck-Millipore at excitation wavelength 488 nm and emission wavelength 525/30 nm. The * in table 2 refers to a fusion protein with the albumin binding domain as dimer (homo-dimer) and/or the targeting moiety as dimer.
row,Kd,Binder
1,2.05 nM,B1
2,2.69 nM,B2
3,2.48 nM,B3
4,2.19 nM,B4
5,2.17 nM,B5
6,3.81 nM,B6
7,1.72 nM,B7

# Biological target: T4, human serum albumin (human, UniProt P02768 25-609)
# T4 construct: also called HSA
# T4 sequence (P02768 25-609 limits assumed): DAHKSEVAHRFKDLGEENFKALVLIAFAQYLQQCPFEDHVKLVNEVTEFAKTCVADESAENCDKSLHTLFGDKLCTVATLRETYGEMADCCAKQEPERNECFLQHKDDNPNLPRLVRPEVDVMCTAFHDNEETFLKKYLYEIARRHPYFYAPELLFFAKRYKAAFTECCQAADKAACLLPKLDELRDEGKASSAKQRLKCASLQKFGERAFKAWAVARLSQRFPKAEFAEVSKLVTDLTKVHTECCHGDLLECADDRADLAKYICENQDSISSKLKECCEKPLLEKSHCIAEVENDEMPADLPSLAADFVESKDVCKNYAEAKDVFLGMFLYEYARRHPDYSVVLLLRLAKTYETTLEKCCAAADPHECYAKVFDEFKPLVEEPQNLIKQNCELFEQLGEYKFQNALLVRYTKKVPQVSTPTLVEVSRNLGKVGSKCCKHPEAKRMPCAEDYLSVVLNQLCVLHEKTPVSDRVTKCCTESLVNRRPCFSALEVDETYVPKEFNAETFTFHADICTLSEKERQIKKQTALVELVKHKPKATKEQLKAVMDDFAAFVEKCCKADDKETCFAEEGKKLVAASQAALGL
# Assay: SPR, HSA immobilised on the chip, pH 7.3, 1:1 Langmuir fit [continued]
# Method: as §3, §4
row,Kd,Binder
1,2.9 nM,B1
2,6.3 nM,B2
3,1.9 nM,B3
4,1.8 nM,B4
5,0.6 nM,B5
6,1.8 nM,B7

# Biological target: T1, Her2-Fc
# Assay: ELISA on coated Her2-Fc; KD 24 h against KD 0 h, human serum
# Method: as §1, §2
row,increase of KD vs target [fold],Binder
1,1.29 fold,B1
2,0.93 fold,B2
3,1.27 fold,B3
4,1.06 fold,B4
5,0.63 fold,B5
6,1.05 fold,B6
7,1.58 fold,B7

# Biological target: T1, Her2-Fc
# Assay: ELISA on coated Her2-Fc; KD 24 h against KD 0 h, mouse serum
# Method: as §1, §2
row,increase of KD vs target [fold],Binder
1,1.72 fold,B1
2,1.14 fold,B2
3,1.23 fold,B3
4,1.19 fold,B4
5,1.43 fold,B5
6,1.2 fold,B6
7,1.2 fold,B7

# Biological target: T5, mouse serum albumin (mouse, UniProt P07724 25-608)
# T5 construct: also called MSA
# Assay: SPR, MSA immobilised
# Method: as §3, §4
row,Kd,Binder
1,< 10 nM,B8
2,< 10 nM,B9
3,< 16 nM,B10
4,< 16 nM,B11
5,< 10 nM,B12
6,< 16 nM,B13
7,< 16 nM,B14
8,< 10 nM,B15
9,< 16 nM,B16
10,< 10 nM,B17

# Biological target: T1, Her2-Fc
# Assay: ELISA on coated Her2-Fc; 0 h in human serum
# Method: as §1, §2
row,Kd,Binder
1,0.61 nM,B1
2,0.34 nM,B2
3,0.34 nM,B3
4,0.29 nM,B4
5,0.84 nM,B5
6,0.34 nM,B6
7,0.23 nM,B7

# Biological target: T1, Her2-Fc
# Assay: ELISA on coated Her2-Fc; 0 h in mouse serum
# Method: as §1, §2
row,Kd,Binder
1,0.36 nM,B1
2,0.21 nM,B2
3,0.25 nM,B3
4,0.21 nM,B4
5,0.42 nM,B5
6,0.17 nM,B6
7,0.2 nM,B7
